Patent US20250215092A1 (ZHEJIANG NANOMAB TECHNOLOGY CENTER, published 2025)

Columns and labels:
[1] = molecular target: T1, EGFR on SKOV3 and Aspc-1 tumor cells (human, UniProt P00533); assay: flow cytometry on SKOV3 tumor cells, anti-human IgG PE, MFI, curve fit; unit from the concentration axis and paragraph 62 [table]
T1 construct: endogenous, on the cell surface; the cell line is named under assay; also called tumor cell EGFR
Protocol: Two kinds of tumor cells, SKOV3 and Aspc-1, expressing EGFR were respectively plated in 96 well plates, with 3×10⁵ cells per well, and then the tumor cells were incubated with gradient diluted VHH-IgG4 antibody. After incubation on ice for half an hour, anti human IgG PE (Jackson Immuno Research, Code: 109-117-008, Lot:145501) was added for incubation, and then CytoFLEX flow cytometry was used for detection. The EC50 of the antibody was calculated by curve fitting.

[2] = molecular target: T2, human EGFR.His antigen (Acro, Cat #EGR-H522a) (human, UniProt P00533 25-645); assay: SPR, antibody captured on protein A, EGFR.His in flow
T2 construct: extracellular domain; Bought protein; also called EGFR his tag protein; full-length EGFR extracellular domain protein; not shown: His tag
Protocol: The binding kinetics and affinity of candidate antibody to human EGFR.His antigen were determined using surface plasmon resonance (SPR). The purified antibody was flowed through the sensor chips pre-immobilized with protein A, and the antibody was captured by protein A. Then five different concentrations of EGFR.His protein were used as the mobile phase, and the binding time and dissociation time were […], respectively. The binding rate (kon), dissociation rate (koff), and equilibrium constant (kD) were analyzed using Biacore Evaluation Software 2.0 (GE). EC225, an antibody that binds to region III of human EGFR, was selected as a positive control (sequence source https.//go.drugbank.com/drugs/DB00002).

[3] = molecular target: T3, Mouse EGFR Protein, His Tag (Acro, Cat #EGR-M5224) (mouse, UniProt Q01279 25-647); assay: ELISA, coated antigen 1 ug/mL, antibody 50 nM
T3 construct: extracellular domain; Bought protein; not shown: His tag
Protocol: (§1) ELISA was used to identify the binding of VHH-IgG4 antibodies to the extracellular domains of mouse EGFR, monkey EGFR, and human EGFR proteins. The detection steps were as follows: Mouse EGFR Protein, His Tag (Acro, Cat #EGR-M5224) and Rhesus macaque EGFR Protein, His Tag (Acro, Cat #EGR-C52H1) were diluted to 1 μg/mL with phosphate buffer, and 100 μL of each dilution was added to a 96-well ELISA plate and coated overnight at 4° C. The next day, the plates were washed twice with PBST (containing 0.5% TWEEN-20) and then blocked with 3% BSA at 37° C. for 1.5 h, followed by two washes with PBST. VHH-IgG4 antibodies were diluted to 50 nM, and 100 μL of the dilution was added to each well and incubated at 37° C. for 1 h. The plates were then washed three times with PBST, and 100 μL of HRP-labeled goat anti-human IgG Fc antibody (1:10000, Bethyl) was added to each well and incubated at 37° C. for another 40 min. After washing the plates four times with PBST, 100 μL of TMB substrate was added to each well, and the reaction was allowed to proceed for 3-5 min. The reaction was stopped by adding 100 μL of 3N hydrochloric acid per well. After stopping the reaction, the optical density at 450/650 nm was measured using a Tecan microplate reader.

[4] = molecular target: T4, Rhesus macaque EGFR Protein, His Tag (Acro, Cat #EGR-C52H1) (rhesus macaque, UniProt P55245 25-645); assay: ELISA, coated antigen 1 ug/mL, antibody 50 nM
T4 construct: extracellular domain; Bought protein; also called Monkey EGFR; not shown: His tag
Protocol: as §1

[5] = molecular target: T5, EGFR-D1D2 (L25-A310, P00533-1 (uniprot)) his tag antigen (human, UniProt P00533 25-310); assay: ELISA: EGFR-D1D2 his tag antigen coated at 0.5 µg/mL, antibody at 2000, 200, 20, 2 nM, HRP goat anti-human IgG Fc, OD450
T5 construct: range 25-310; also called I+II domain protein; EGFR-D1D2 protein; not shown: His tag
Protocol: (2) Protein Binding Epitope Analysis: ELISA was used to determine the binding of VHH-IgG4 antibody to each domain of EGFR extracellular protein. Briefly, EGFR his tag protein, and EGFR-V3-his tag antigen protein were diluted to 1 μg/mL, EGFR-D1D2 (L25-A310, P00533-1 (uniprot)), and EGFR-D4 (F481-S645, P00533-1 (uniprot)) his tag antigen were diluted to 0.5 μg/mL, and each well of an ELISA plate was coated with […] antigen and incubated overnight at 4° C. The next day, the plates were washed twice with PBST (added with 0.5% TWEEN-20), then blocked with 3% BSA at 37° C. for 1.5 h, and then washed twice with PBST. Then, the antibody to be tested was diluted to 50 nM, 5 nM, 0.5 nM, 0.05 nM, and added to the wells coated with EGFR his tag protein or EGFR-V3-his tag antigen at 100 µL/well, respectively. The antibody was diluted to 2000 nM, 200 nM, 20 nM, 2 nM, and added to the wells coated with EGFR his tag protein or EGFR-V3-his tag antigen at 100 µL/well, respectively. The ELISA plates were incubated at 37° C. for 1 h. The plates were then washed three times with PBST, and then 100 μL HRP labeled Goat anti human IgG Fc antibody (1:10000, Bethyl) was added into each well, and incubated at 37° C. for another 40 min. After washing the plates four times with PBST, 100 μL of TMB substrate was added to each well, and the reaction was allowed to proceed for 3-5 min. The reaction was stopped by adding 100 μL of 3N hydrochloric acid per well. After stopping the reaction, the optical density at 450/650 nm was measured using a Tecan microplate reader.

[6] = molecular target: T6, Region III of EGFR expressed on HEK293T cells (human, UniProt P00533); assay: flow cytometry on HEK293T cells expressing EGFR region III, anti-human IgG PE, MFI, curve fit; unit from the concentration axis and paragraph 62 [table]
T6 construct: also called HEK293T EGFR-III cells; stably transformed cell line 293T overexpressing EGFR III region protein
Protocol: HEK293T cells that express Region III of EGFR (i.e., HEK293T […] cells) were plated in a 96-well plate with 3×10⁵ cells/well, and then HEK293T […] cells were incubated with gradient diluted VHH-IgG4 antibody. After incubation for half an hour, anti-human IgG PE (Jackson Immuno Research, Code: 109-117-008, Lot:145501) as the secondary antibody for detection was added for incubation, and then CytoFLEX flow cytometer was used for detection. The EC50 of the antibody was calculated by curve fitting with Graphprism8.0 software. Isotype 1 in the figure is a negative control, and its amino acid sequence is shown as SEQ ID NO: 2 in CN106046152A.

Binder	EC50 [1]	Kd [2]	koff [2]	kon [2]	OD450 [3]	OD450 [4]	binding result [5]	EC50 [6]
E005 VHH-IgG4 antibody (antibody, V domains shown, VHH fused to IgG4 (VHH-IgG4), expressed in ExpiCHO, protein A purified; not shown: human IgG4 constant part from the pCDNA3.4-IgG4 vector) VH: QVQLVESGGGLVQPGGSLRLSCEASGFAFSDYTMRWHRQAAGKELELVAYITSAGDIIKYANSVRGRFTISRDNAKNTLYLQMDSLKPEDTAVYRCNALVSASVRASDYWGQGTLVTVSS	9.7 nM	2.86 nM	4.67e-05 s⁻¹	16400 M⁻¹ s⁻¹	3.33 OD450	3.19 OD450	no binding (tested: 2000 nM)	0.98 nM
E008 VHH-IgG4 antibody (antibody, V domains shown, VHH fused to IgG4 (VHH-IgG4), expressed in ExpiCHO, protein A purified; not shown: human IgG4 constant part from the pCDNA3.4-IgG4 vector) VH: EVQVVESGGGLVQSGGSLTLSCTSSGLPLLDYAIGWFRQAPGKEREAVSAISISEGSTYYTDSVRGRFTISRDNNKNKVYLRMDNLKPEDTAVYYCAADKTDIGFWLLVGGAGGGEVRYEYWGQGTQVTVSS	1.1 nM	9.62 nM	0.0148 s⁻¹	1.53e+06 M⁻¹ s⁻¹	0.72 OD450	3.68 OD450	no binding (tested: 2000 nM)	0.18 nM

Next, values leading:

EC50 [1]	Kd [2]	koff [2]	kon [2]	OD450 [3]	OD450 [4]	binding result [5]	EC50 [6]	Binder
14 nM	0.292 nM	1.08e-05 s⁻¹	37100 M⁻¹ s⁻¹	3.21 OD450	3.35 OD450	no binding (tested: 2000 nM)	0.47 nM	E007 VHH-IgG4 antibody (antibody, V domains shown, not shown: a dimerising Fc or GST) VH: EVQLVESGGGLVQPGGSLRLSCEASGFSFSDHTMRWHRQAAGKNLELVAYITPAGDIIKYADSVQGRFTISRDNAKNMLYLQMDSLRPDDTAVYRCNALVSAAVRASDYWGQGTQVTVSS
2.3 nM	2.49 nM	0.000121 s⁻¹	48500 M⁻¹ s⁻¹	2.73 OD450	3.06 OD450	no binding (tested: 2000 nM)	0.095 nM	E002 VHH-IgG4 antibody (antibody, V domains shown, VHH fused to IgG4 (VHH-IgG4), expressed in ExpiCHO, protein A purified; not shown: human IgG4 constant part from the pCDNA3.4-IgG4 vector) VH: QVQLVESGGGLVQAGGSLRLSCAASGFTFSDYAVSWYRQAPGKEREFVARITGTGETSRYEDSVKGRFAISRDNVKNTAYLQMNSLKPEDTAVYYCSIYHPPRDYWGQGTQVTVSS
6.5 nM	4.68 nM	0.000133 s⁻¹	28400 M⁻¹ s⁻¹	2.8 OD450	3.15 OD450	no binding (tested: 2000 nM)	0.36 nM	E003 VHH-IgG4 antibody (antibody, V domains shown, not shown: a dimerising Fc or GST) VH: QVQLVESGGGLVQPGGSLRLSCVASGGVFSSYAMGWYRQVPGKLRELVATITSGHSTTYADIVRGRFTISRDNTKNTVYLQMNRLEPDDTAVYYCNRSPYTPGNWGQGTLVTVSS
–	5.17 nM	0.000776 s⁻¹	150000 M⁻¹ s⁻¹	3.37 OD450	3.64 OD450	no binding (tested: 2000 nM)	0.39 nM	E004 VHH-IgG4 antibody (antibody, V domains shown, not shown: a dimerising Fc or GST) VH: EVQLVESGGGLAQSGGSLRLACEASGFPFETYAMSWARQTPGNEPEWVAGIFPDGKHTAYAHSVKGRFTISRVNANNTVYLQMDSLKPEDTAVYYCAKDLPFFATPSFYIGYWGQGTLVTVSS
